The test system of data set [1] is HeLa Kyoto. Briefly: melting temperature (median over replicates), in situ; higher = more thermally stable.
The test system of data set [2] is HeLa Kyoto. Briefly: solubility in G1/S (NP-40 vs SDS abundance) (log2 ratio); higher = more soluble. The following applies: cell cycle stage: G1/S.
Data set [3] deals with HeLa Kyoto. As to the kind of experiment: thermal stability score vs G1/S (z-score of summed log2 fold changes over temperatures); higher = more thermally stable than in G1/S.
Data set [4] deals with HeLa Kyoto. Briefly: solubility change mitosis vs G1/S (difference of NP-40 vs SDS log2 ratios) (log2 ratio difference); higher = more soluble in mitosis.
Setting [5] is: cell cycle stage: early G1 (4.5 h after nocodazole release).
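Throughout, for melting temperature (median over replicates), in situ: HeLa Kyoto cells synchronized by double thymidine or nocodazole block, proteins quantified by TMT10plex mass spectrometry, three independent biological replicates.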
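Throughout, for solubility change mitosis vs G1/S (difference of NP-40 vs SDS log2 ratios): synchronized HeLa Kyoto cells (double thymidine block for G1/S, nocodazole release for mitosis), protein amounts in NP-40 versus SDS lysates quantified by mass spectrometry, three biological replicates.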
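Throughout, for solubility in G1/S (NP-40 vs SDS abundance): HeLa Kyoto cells arrested at G1/S by double thymidine block, proteins quantified by TMT10plex mass spectrometry in mild NP-40 versus SDS extracts, three biological replicates.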
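Throughout, for thermal stability score vs G1/S (z-score of summed log2 fold changes over temperatures): synchronized HeLa Kyoto cells, proteins quantified by TMT10plex mass spectrometry, three biological replicates, mitosis taken 0.5 h after nocodazole release, G1/S directly after double thymidine block.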

Chain of COL12A1 (chain, as listed by the source): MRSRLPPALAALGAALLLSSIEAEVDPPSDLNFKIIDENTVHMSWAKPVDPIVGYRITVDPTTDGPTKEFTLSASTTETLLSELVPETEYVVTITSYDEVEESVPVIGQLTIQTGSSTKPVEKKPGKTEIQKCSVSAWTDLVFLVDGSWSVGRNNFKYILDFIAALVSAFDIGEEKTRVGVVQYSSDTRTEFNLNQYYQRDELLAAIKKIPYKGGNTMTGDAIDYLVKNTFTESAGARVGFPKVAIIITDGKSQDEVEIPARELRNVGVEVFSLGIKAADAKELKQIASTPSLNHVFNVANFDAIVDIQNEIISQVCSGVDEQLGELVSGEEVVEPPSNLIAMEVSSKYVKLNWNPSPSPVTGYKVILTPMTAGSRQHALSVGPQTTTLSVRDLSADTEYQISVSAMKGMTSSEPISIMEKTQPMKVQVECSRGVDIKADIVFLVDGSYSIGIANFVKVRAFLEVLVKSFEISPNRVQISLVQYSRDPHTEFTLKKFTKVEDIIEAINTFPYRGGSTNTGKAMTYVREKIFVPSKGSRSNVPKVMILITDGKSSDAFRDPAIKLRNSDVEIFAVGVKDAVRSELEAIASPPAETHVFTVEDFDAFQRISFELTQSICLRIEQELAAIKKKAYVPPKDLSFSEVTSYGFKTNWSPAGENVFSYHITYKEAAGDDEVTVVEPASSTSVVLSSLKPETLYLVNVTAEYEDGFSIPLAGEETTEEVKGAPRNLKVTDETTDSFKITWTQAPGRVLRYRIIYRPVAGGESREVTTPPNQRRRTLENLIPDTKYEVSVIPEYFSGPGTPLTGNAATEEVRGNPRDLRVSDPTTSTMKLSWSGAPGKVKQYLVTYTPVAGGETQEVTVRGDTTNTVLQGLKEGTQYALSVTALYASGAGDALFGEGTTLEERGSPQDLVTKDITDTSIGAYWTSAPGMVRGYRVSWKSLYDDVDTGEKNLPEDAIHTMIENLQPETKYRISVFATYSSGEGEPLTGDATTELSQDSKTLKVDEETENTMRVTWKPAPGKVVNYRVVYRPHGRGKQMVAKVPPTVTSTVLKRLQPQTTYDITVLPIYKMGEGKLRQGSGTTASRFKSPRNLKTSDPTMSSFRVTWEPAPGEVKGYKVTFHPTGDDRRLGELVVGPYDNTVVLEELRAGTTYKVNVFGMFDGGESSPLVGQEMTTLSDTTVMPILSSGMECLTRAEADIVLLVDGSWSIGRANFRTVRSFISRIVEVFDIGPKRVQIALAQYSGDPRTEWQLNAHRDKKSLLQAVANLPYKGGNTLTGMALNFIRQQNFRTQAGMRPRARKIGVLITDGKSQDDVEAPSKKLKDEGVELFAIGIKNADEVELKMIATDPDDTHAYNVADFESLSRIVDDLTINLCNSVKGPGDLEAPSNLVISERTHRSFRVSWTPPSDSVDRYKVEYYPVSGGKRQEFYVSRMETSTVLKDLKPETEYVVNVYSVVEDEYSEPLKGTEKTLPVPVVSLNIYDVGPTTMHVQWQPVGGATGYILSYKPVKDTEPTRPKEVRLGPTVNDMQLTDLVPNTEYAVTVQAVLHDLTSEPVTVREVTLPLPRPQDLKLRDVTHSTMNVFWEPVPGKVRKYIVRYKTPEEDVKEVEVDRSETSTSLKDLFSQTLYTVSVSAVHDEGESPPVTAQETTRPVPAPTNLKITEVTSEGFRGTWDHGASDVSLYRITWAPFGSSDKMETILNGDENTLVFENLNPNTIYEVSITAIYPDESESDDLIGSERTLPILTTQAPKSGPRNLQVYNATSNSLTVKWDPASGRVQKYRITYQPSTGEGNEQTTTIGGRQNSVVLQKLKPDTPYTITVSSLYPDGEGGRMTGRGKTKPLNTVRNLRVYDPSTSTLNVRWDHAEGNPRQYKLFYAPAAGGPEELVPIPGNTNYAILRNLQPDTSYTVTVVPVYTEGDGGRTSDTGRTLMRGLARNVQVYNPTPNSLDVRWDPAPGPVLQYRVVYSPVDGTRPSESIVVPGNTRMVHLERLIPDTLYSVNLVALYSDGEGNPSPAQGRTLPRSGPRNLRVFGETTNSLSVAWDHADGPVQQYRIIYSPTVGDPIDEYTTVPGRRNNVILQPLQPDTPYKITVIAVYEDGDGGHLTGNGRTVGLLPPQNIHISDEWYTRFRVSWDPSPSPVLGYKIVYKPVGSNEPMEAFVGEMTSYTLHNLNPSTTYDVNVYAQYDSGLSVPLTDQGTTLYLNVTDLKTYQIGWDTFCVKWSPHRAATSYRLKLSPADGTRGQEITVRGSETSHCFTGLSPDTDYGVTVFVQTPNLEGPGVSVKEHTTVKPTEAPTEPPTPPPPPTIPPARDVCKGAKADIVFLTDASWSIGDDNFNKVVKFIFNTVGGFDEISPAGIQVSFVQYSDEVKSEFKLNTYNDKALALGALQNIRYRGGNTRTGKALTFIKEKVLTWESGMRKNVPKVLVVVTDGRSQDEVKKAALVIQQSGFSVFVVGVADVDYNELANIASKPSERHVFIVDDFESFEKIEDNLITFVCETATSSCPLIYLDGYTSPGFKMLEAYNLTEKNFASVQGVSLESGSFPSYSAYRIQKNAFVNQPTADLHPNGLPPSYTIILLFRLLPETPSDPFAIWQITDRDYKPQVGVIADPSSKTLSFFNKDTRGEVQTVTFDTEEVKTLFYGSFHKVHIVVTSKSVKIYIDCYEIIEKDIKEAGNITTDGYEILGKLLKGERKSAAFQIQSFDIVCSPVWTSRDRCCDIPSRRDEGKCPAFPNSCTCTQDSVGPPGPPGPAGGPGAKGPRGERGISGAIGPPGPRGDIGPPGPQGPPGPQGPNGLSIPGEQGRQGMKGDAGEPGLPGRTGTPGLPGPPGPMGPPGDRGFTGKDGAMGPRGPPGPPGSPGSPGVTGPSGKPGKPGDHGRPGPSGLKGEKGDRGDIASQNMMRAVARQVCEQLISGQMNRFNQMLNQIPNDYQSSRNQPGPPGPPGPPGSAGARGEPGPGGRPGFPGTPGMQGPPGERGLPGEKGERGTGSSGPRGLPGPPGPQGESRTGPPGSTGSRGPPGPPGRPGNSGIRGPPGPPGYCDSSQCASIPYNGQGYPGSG

For the substance “MESRDPAQPMSPGEATQSGARPADRYGLLKHSREFLDFFWDIAKPEQETRLAATEKLLEYLRGRPKGSEMKYALKRLITGLGVGRETARPCYSLALAQLLQSFEDLPLCSILQQIQEKYDLHQVKKAMLRPALFANLFGVLALFQSGRLVKDQEALMKSVKLLQALAQYQNHLQEQPRKALVDILSEVSKATLQEILPEVLKADLNIILSSPEQLELFLLAQQKVPSKLKKLVGSVNLFSDENVPRLVNVLKMAASSVKKDRKLPAIALDLLRLALKEDKFPRFWKEVVEQGLLKMQFWPASYLCFRLLGAALPLLTKEQLHLVMQGDVIRHYGEHVCTAKLPKQFKFAPEMDDYVGTFLEGCQDDPERQLAVLVAFSSVTNQGLPVTPTFWRVVRFLSPPALQGYVAWLRAMFLQPDLDSLVDFSTNNQKKAQDSSLHMPERAVFRLRKWIIFRLVSIVDSLHLEMEEALTEQVARFCLFHSFFVTKKPTSQIPETKHPFSFPLENQAREAVSSAFFSLLQTLSTQFKQAPGQTQGGQPWTYHLVQFADLLLNHSHNVTTVTPFTAQQRQAWDRMLQTLKELEAHSAEARAAAFQHLLLLVGIHLLKSPAESCDLLGDIQTCIRKSLGEKPRRSRTKTIDPQEPPWVEVLVEILLALLAQPSHLMRQVARSVFGHICSHLTPRALQLILDVLNPETSEDENDRVVVTDDSDERRLKGAEDKSEEGEDNRSSESEEESEGEESEEEERDGDVDQGFREQLMTVLQAGKALGGEDSENEEELGDEAMMALDQSLASLFAEQKLRIQARRDEKNKLQKEKALRRDFQIRVLDLVEVLVTKQPENALVLELLEPLLSIIRRSLRSSSSKQEQDLLHKTARIFTHHLCRARRYCHDLGERAGALHAQVERLVQQAGRQPDSPTALYHFNASLYLLRVLKGNTAEGCVHETQEKQKAGTDPSHMPTGPQAASCLDLNLVTRVYSTALSSFLTKRNSPLTVPMFLSLFSRHPVLCQSLLPILVQHITGPVRPRHQACLLLQKTLSMREVRSCFEDPEWKQLMGQVLAKVTENLRVLGEAQTKAQHQQALSSLELLNVLFRTCKHEKLTLDLTVLLGVLQGQQQSLQQGAHSTGSSRLHDLYWQAMKTLGVQRPKLEKKDAKEIPSATQSPISKKRKKKGFLPETKKRKKRKSEDGTPAEDGTPAATGGSQPPSMGRKKRNRTKAKVPAQANGTPTTKSPAPGAPTRSPSTPAKSPKLQKKNQKPSQVNGAPGSPTEPAGQKQHQKALPKKGVLGKSPLSALARKKARLSLVIRSPSLLQSGAKKKAQVRKAGKP [MYBBP1A]”, the melting temperature in data set [1] (cell cycle stage: G1/S) is 48.1 °C; in data set [1] (cell cycle stage: mitosis) it was 48.9 °C. For the same substance, the “solubility in G1/S (log2)” value in data set [2] is -0.42. Also, the thermal stability score in data set [3] (setting [5]) is 0.7; in data set [3] (cell cycle stage: mitosis), 2.36. Further, the “solubility change mitosis (log2)” value in data set [4] was found to be 0.349.
“MALAARLLPQFLHSRSLPCGAVRLRTPAVAEVRLPSATLCYFCRCRLGLGAALFPRSARALAASALPAQGSRWPVLSSPGLPAAFASFPACPQRSYSTEEKPQQHQKTKMIVLGFSNPINWVRTRIKAFLIWAYFDKEFSITEFSEGAKQAFAHVSKLLSQCKFDLLEELVAKEVLHALKEKVTSLPDNHKNALAANIDEIVFTSTGDISIYYDEKGRKFVNILMCFWYLTSANIPSETLRGASVFQVKLGNQNVETKQLLSASYEFQREFTQGVKPDWTIARIEHSKLLE [C2ORF47]”: the melting temperature in data set [1] (cell cycle stage: G1/S) turned out to be 53.7 °C; in data set [1] (cell cycle stage: mitosis), 53.3 °C. The “solubility in G1/S (log2)” value in data set [2] is -0.257. The thermal stability score was 0.0315 in data set [3] (setting [5]) and 0.76 in data set [3] (cell cycle stage: mitosis). Also, the “solubility change mitosis (log2)” value in data set [4] is -0.117.
Take COL12A1: the melting temperature in data set [1] (cell cycle stage: G1/S) came out at 53.8 °C; in data set [1] (cell cycle stage: mitosis), 54.9 °C. The “solubility in G1/S (log2)” value in data set [2] was -0.1. Also, the thermal stability score in data set [3] (setting [5]) turned out to be 4.88; in data set [3] (cell cycle stage: mitosis), 5.9. Moreover, in data set [4], the “solubility change mitosis (log2)” value was -0.124.
For the substance “MAPSGLKAVVGEKILSGVIRSVKKDGEWKVLIMDHPSMRILSSCCKMSDILAEGITIVEDINKRREPIPSLEAIYLLSPTEKSVQALIKDFQGTPTFTYKAAHIFFTDTCPEPLFSELGRSRLAKVVKTLKEIHLAFLPYEAQVFSLDAPHSTYNLYCPFRAEERTRQLEVLAQQIATLCATLQEYPAIRYRKGPEDTAQLAHAVLAKLNAFKADTPSLGEGPEKTRSQLLIMDRAADPVSPLLHELTFQAMAYDLLDIEQDTYRYETTGLSEAREKAVLLDEDDDLWVELRHMHIADVSKKVTELLRTFCESKRLTTDKANIKDLSQILKKMPQYQKELNKYSTHLHLADDCMKHFKGSVEKLCSVEQDLAMGSDAEGEKIKDSMKLIVPVLLDAAVPAYDKIRVLLLYILLRNGVSEENLAKLIQHANVQAHSSLIRNLEQLGGTVTNPGGSGTSSRLEPRERMEPTYQLSRWTPVIKDVMEDAVEDRLDRNLWPFVSDPAPTASSQAAVSARFGHWHKNKAGIEARAGPRLIVYVMGGVAMSEMRAAYEVTRATEGKWEVLIGSSHILTPTRFLDDLKALDKKLEDIALP [STXBP2]”, the melting temperature turned out to be 49.3 °C in data set [1] (cell cycle stage: G1/S) and 49.2 °C in data set [1] (cell cycle stage: mitosis). For the same substance, in data set [2], the “solubility in G1/S (log2)” value was -0.0683. Moreover, the thermal stability score in data set [3] (setting [5]) stood at 0.25; in data set [3] (cell cycle stage: mitosis), 1.22. Also, in data set [4], the “solubility change mitosis (log2)” value was -0.19.
Regarding “MFVPCGESAPDLAGFTLLMPAVSVGNVGQLAMDLIISTLNMSKIGYFYTDCLVPMVGNNPYATTEGNSTELSINAEVYSLPSRKLVALQLRSIFIKYKSKPFCEKLLSWVKSSGCARVIVLSSSHSYQRNDLQLRSTPFRYLLTPSMQKSVQNKIKSLNWEEMEKSRCIPEIDDSEFCIRIPGGGITKTLYDESCSKEIQMAVLLKFVSEGDNIPDALGLVEYLNEWLQILKPLSDDPTVSASRWKIPSSWRLLFGSGLPPALF [PSMG2]”, the melting temperature in data set [1] (cell cycle stage: G1/S) was 54.2 °C; in data set [1] (cell cycle stage: mitosis), 53.9 °C. Further, the “solubility in G1/S (log2)” value in data set [2] worked out at 0.264. For the same substance, the thermal stability score in data set [3] (setting [5]) was -0.904; in data set [3] (cell cycle stage: mitosis), -2.71. Also, the “solubility change mitosis (log2)” value in data set [4] is -0.0561.

These data come from the supplement of paper PMC5998384.
